Source: the supplement of paper PMC7877785
± gives the uncertainty stated by the source.

Test: self-splicing fitness, log relative to wild type (ln ratio); higher = more splicing; Tetrahymena group I intron in knt gene, E. coli kanamycin selection, DiMSum; sequences stand for … in CUCUCU…GGAGGGAAAAGUUAUCAGGCAUGCACCUGGUAGCUAGUCUUUAAACCAAUAGAUUGCAUCGGUUUAAAAGGCAAGACCGUCAAAUUGCGGGAAAGGGGUCAACAGCCGUUCAGUACCAAGUCUCAGGGGAAACUUUGAGAUGGCCUUGCAAAGGGUAUGGUAAUAAGCUGACGGACAUGGUCCUAACCACGCAGCCAAGUCCUAAGUCAACAGAUCUUCUGUUGAUAUGGAUGCAGUUCACAGACUAAAUGUCGGUCGGGGAAGAUGUAUUCUUCUCAUAAGAUAUAGUCGGACCUCUCCUUAAUGGGAGCUAGCGGAUGAAGUGAUGCAACACUGGAGCCGCUGGGAACUAAUUUGUAUGCGAAAGUAUAUUGAUUAGUUUUGGAGUACUCGUGGUCG
Method in brief: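 Six replicate transformations of E. coli BL21(DE3) with a pET-22b(+) library were grown overnight at 37°C or 30°C. The library randomised all eight P1ex-region intron nucleotides, the intron lying in the knt kanamycin-resistance gene, and plates were LB agar with or without 25 μg/mL kanamycin plus 100 μg/mL carbenicillin, 50 μM IPTG and 0.2% rhamnose. Pooled colonies were amplicon-sequenced on an Illumina HiSeq 2500, and fitness is the DiMSum error-weighted combination of wild-type-normalised replicate fold changes, kanamycin versus none.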

Row | Sequence | self-splicing fitness (ln) (30 °C) | self-splicing fitness (ln) (37 °C)
1 | ACCCAGCAAUAUUACGAAUA | -2.29 ± 0.14 | -1.19 ± 0.12
2 | GAUAAGCAAUAUUACGACCG | -1.01 ± 0.18 | -0.581 ± 0.36
3 | ACACAGCAAUAUUACGUUAU | -3.35 ± 0.11 | -2.65 ± 0.12
4 | AAGGAGCAAUAUUACGCUCA |  | -0.14 ± 0.37
5 | UCCGAGCAAUAUUACGUGUC |  | -2.64 ± 0.34
6 | UUUGAGCAAUAUUACGAGGG | -3.32 ± 0.32 | -0.691 ± 0.24
7 | CGUAAGCAAUAUUACGGUGG | -1.48 ± 0.082 | -1.25 ± 0.11
8 | AGUGAGCAAUAUUACGGCGU | -1.08 ± 0.071 | -0.465 ± 0.084
9 | GUUGAGCAAUAUUACGUAUA | -2.17 ± 0.29 | 
10 | CCUAAGCAAUAUUACGAAAC | -3.48 ± 0.33 | 
11 | UUGGAGCAAUAUUACGAGGG | -2.34 ± 0.22 | -2.6 ± 0.49
12 | GUGGAGCAAUAUUACGGUGG | -3.76 ± 0.23 | -2.5 ± 0.23
13 | CAUGAGCAAUAUUACGGAUU | -3.76 ± 0.21 | -2.52 ± 0.26
14 | AACCAGCAAUAUUACGUUUG | -2.83 ± 0.077 | -2.31 ± 0.1
15 | AUCCAGCAAUAUUACGGAUG | -2.21 ± 0.094 | -1.68 ± 0.12
16 | UUGUAGCAAUAUUACGGACG | -1.33 ± 0.19 | -0.721 ± 0.19
17 | UCUAAGCAAUAUUACGCAUG | -1.88 ± 0.095 | -2.07 ± 0.12
18 | UCGCAGCAAUAUUACGCGUU | -4.2 ± 0.27 | -2.38 ± 0.13
19 | ACCCAGCAAUAUUACGGCAG | -3.84 ± 0.21 | -2.74 ± 0.18
20 | GCUAAGCAAUAUUACGAUAC | -1.9 ± 0.12 | -0.355 ± 0.11
21 | GGAAAGCAAUAUUACGGCUC | -0.254 ± 0.13 | 0.018 ± 0.16
22 | CACCAGCAAUAUUACGGGAA | -1.05 ± 0.059 | -1.07 ± 0.075
23 | CUCUAGCAAUAUUACGCCCU | -3.28 ± 0.26 | -2.2 ± 0.19
24 | AAAUAGCAAUAUUACGUUCC | -2.08 ± 0.16 | -1.1 ± 0.19
25 | GGGUAGCAAUAUUACGCAGU | -1.34 ± 0.16 | -1.02 ± 0.11
26 | CAUUAGCAAUAUUACGAGAC | -3.15 ± 0.46 | -1.57 ± 0.42

Row | Sequence | self-splicing fitness (ln) (30 °C) | self-splicing fitness (ln) (37 °C)
27 | CUAUAGCAAUAUUACGUAAC | -1.97 ± 0.42 | 
28 | AAAUAGCAAUAUUACGUCGG | -2.54 ± 0.14 | -1.14 ± 0.13
29 | ACUAAGCAAUAUUACGAUUU | -0.208 ± 0.062 | -0.0751 ± 0.09
30 | ACCUAGCAAUAUUACGUCCA | -1.53 ± 0.098 | -0.615 ± 0.094
31 | AAGUAGCAAUAUUACGAGGG | -3.71 ± 0.24 | -3.29 ± 0.28
32 | AUUGAGCAAUAUUACGGUCC |  | -1.58 ± 0.22
33 | CGCGAGCAAUAUUACGGGCG | -3.25 ± 0.24 | -3.4 ± 0.42
34 | UUGGAGCAAUAUUACGAAUG | -3.5 ± 0.2 | -2.31 ± 0.21
35 | CUACAGCAAUAUUACGUGCC | -2.73 ± 0.26 | -2.39 ± 0.38
36 | CUGCAGCAAUAUUACGAGUG | -0.52 ± 0.053 | 0.112 ± 0.087
37 | AGGCAGCAAUAUUACGGUAU | -1.79 ± 0.093 | -0.467 ± 0.1
38 | GACAAGCAAUAUUACGGGGA | -3.05 ± 0.12 | -1.75 ± 0.1
39 | GCCAAGCAAUAUUACGGUCC | -2.49 ± 0.11 | -0.771 ± 0.11
40 | AGAUAGCAAUAUUACGCCGG | -2.14 ± 0.44 | 
41 | GGACAGCAAUAUUACGCUAC | -4.74 ± 0.27 | -2.33 ± 0.24
42 | GUAAAGCAAUAUUACGUGCC | -3.19 ± 0.16 | -1.93 ± 0.17
43 | AAUGAGCAAUAUUACGCAUG | -2.58 ± 0.17 | -0.519 ± 0.12
44 | ACAGAGCAAUAUUACGCGUA | -3.21 ± 0.2 | -2.91 ± 0.23
45 | UGAAAGCAAUAUUACGGAUC | -3.19 ± 0.24 | -2.83 ± 0.33
46 | ACGAAGCAAUAUUACGGCAA | -1.04 ± 0.13 | -0.678 ± 0.13
47 | UCCAAGCAAUAUUACGAGCA | -0.834 ± 0.08 | -0.0464 ± 0.1
48 | AAUGAGCAAUAUUACGAUGA | -2.16 ± 0.12 | -1.77 ± 0.15
49 | CAAUAGCAAUAUUACGACAG | -0.279 ± 0.077 | 0.138 ± 0.094
50 | CUUGAGCAAUAUUACGGUAA |  | -2.99 ± 0.47
51 | GUUUAGCAAUAUUACGAGCC | -3.21 ± 0.21 | -1.56 ± 0.2
52 | GCUCAGCAAUAUUACGCCCC | 0.441 ± 0.32 | -0.222 ± 0.41

Row | Sequence | self-splicing fitness (ln) (30 °C) | self-splicing fitness (ln) (37 °C)
53 | CAUCAGCAAUAUUACGUGCA | -3.14 ± 0.21 | -1.97 ± 0.2
54 | ACCCAGCAAUAUUACGAAAG | -2.85 ± 0.13 | -1.47 ± 0.17
55 | CACUAGCAAUAUUACGCGAU | -2.63 ± 0.23 | -2.12 ± 0.28
56 | UUCAAGCAAUAUUACGGGGA | -1.49 ± 0.1 | -0.885 ± 0.1
57 | AAUUAGCAAUAUUACGUCAU | -2.24 ± 0.18 | -1.7 ± 0.17
58 | CAUGAGCAAUAUUACGCAUC | -2.04 ± 0.31 | -2.41 ± 0.33
59 | CAUCAGCAAUAUUACGUGCG | -0.149 ± 0.056 | 0.355 ± 0.075
60 | CGGAAGCAAUAUUACGAUCU | -1.11 ± 0.12 | -0.942 ± 0.15
61 | AGGCAGCAAUAUUACGACCU | -1.51 ± 0.14 | -1.28 ± 0.17
62 | CACUAGCAAUAUUACGAUCU | -3.56 ± 0.19 | -2.18 ± 0.18
63 | CGUUAGCAAUAUUACGAUCC | -1.74 ± 0.19 | -0.851 ± 0.21
64 | GGUAAGCAAUAUUACGACGA | -0.849 ± 0.098 | 0.225 ± 0.098
65 | AAUAAGCAAUAUUACGUCUA | -0.766 ± 0.077 | 0.434 ± 0.1
66 | UUUCAGCAAUAUUACGAAGU | -1.82 ± 0.22 | 0.335 ± 0.25
67 | GUGGAGCAAUAUUACGUCUU | -2.36 ± 0.24 | -2.36 ± 0.36
68 | CCCAAGCAAUAUUACGAACC |  | -2.59 ± 0.35
69 | CAGGAGCAAUAUUACGUUUC | -3.21 ± 0.28 | -3.11 ± 0.38
70 | CGAUAGCAAUAUUACGGGAC | -4.19 ± 0.36 | -2.42 ± 0.27
71 | CUUGAGCAAUAUUACGAUAA | -3.27 ± 0.31 | -0.951 ± 0.37
72 | AUAUAGCAAUAUUACGUAUG | -3.36 ± 0.25 | -1.72 ± 0.3
73 | CAACAGCAAUAUUACGUAAA | -2.42 ± 0.069 | -1.91 ± 0.098
74 | CUUAAGCAAUAUUACGCGCG | -1.54 ± 0.12 | -0.513 ± 0.17
75 | UAAAAGCAAUAUUACGCGGC | -3.63 ± 0.47 | -2.1 ± 0.31
76 | AAAAAGCAAUAUUACGACAA | -0.322 ± 0.1 | 0.331 ± 0.12
77 | CGCAAGCAAUAUUACGUGAG | -2.69 ± 0.13 | -2.15 ± 0.13
78 | UUAAAGCAAUAUUACGACUU | -1.11 ± 0.1 | -0.0515 ± 0.14
